Results as given in patent publication US12428627B2, “Mutant p-hydroxyphenylpyruvate dioxygenase, and coding nucleic acid and use thereof” (Qingdao Kingagroot Chemical Compound Co., Ltd., priority 2018, dated 2025).

Test system: rice HPPD (OsHPPD)
Test: Color reaction of recombinant E. coli expressing wild-type or mutant rice HPPD, cultured in 96-well plate in medium containing an HPPD-inhibiting herbicide and tyrosine
Type: cell-based, Oryza sativa
Settings: compound 101
In short: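 E. coli clones expressing wild-type or single-site-mutant rice HPPD (residues 51 onward, NNK saturation mutagenesis, pET-44a) grown 24 h at 28 °C in 2×YT with 1 g/L L-Tyr, 0.1 mM IPTG, 0.01 mM MnCl2 and herbicide at 1–20 μM final (tembotrione 1.7 μM, mesotrione 10 μM). Brown homogentisate colour scored semi-quantitatively versus wild type.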

B1: H141R/G342D/D370N: three-site mutant rice HPPD (OsHPPD3M) (protein, listed as Oryza sativa)
chain: MPPTPTPTATTGAVSAAAAAGENAGFRLVGHRRFVRANPRSDRFQALAFHHVELWCADAASAAGRFAFALGAPLAARSDLSTGNSAHASLLLRSASVAFLFTAPYGGDHGVGADAATTASIPSFSPGAARRFAADHGLAVRAVALRVADAADAFRASVAAGARPAFQPADLGGGFGLAEVELYGDVVLRFVSHPDGADAPFLPGFEGVSNPGAVDYGLRRFDHVVGNVPELAPVAAYISGFTGFHEFAEFTAEDVGTAESGLNSVVLANNAETVLLPLNEPVHGTKRRSQIQTYLDHHGGPGVQHIALASDDVLGTLREMRARSAMGGFEFLAPPPPNYYDDVRRRAGDVLSEEQINECQELGVLVDRDNQGVLLQIFTKPVGDRPTFFLEMIQRIGCMEKDESGQEYQKGGCGGFGKGNFSELFKSIEEYEKSLEAKQAPTVQGS
modifications: The amino acid sequence of Wild-Type rice HPPD protein (OsHPPD _WT)
- concentration of 101 required to have no significant color reaction: 120 µM
